The source of these data is article PMC3320582, “Group A Streptococcus Secreted Esterase Hydrolyzes Platelet-Activating Factor to Impede Neutrophil Recruitment and Facilitate Innate Immune Evasion” (PLoS Pathogens, 2012).

The test system of the series is [H][C@@](COCCCCCCCCCCCCCCCC)(COP(=O)([O-])OCC[N+](C)(C)C)SC(C)=O. The series is described as follows: purified protein. Conditions: 20 mM Tris-HCl, pH 8.0, DTNB, room temperature, substrate concentrations corrected for early hydrolysis.

As for “SsE (Streptococcus pyogenes serotype M1)”, the Km was found to be 7.0 µM and the catalytic constant (kcat) was 69.6 s⁻¹.

Usually Km stands for the concentration of substrate that gives half-maximal velocity. Broadly, the kcat is the maximal rate divided by the concentration of active sites.
